Experimental data reported in publication PMC5829300.

Molecular target: ^hexYME1^WB (^hexYME1 variant containing an E381Q Walker B mutant) (yeast) (UniProt P32795)
Assay: cryo-EM structure

## ^hexYME1^WB (^hexYME1 variant containing an E381Q Walker B mutant) (from UniProt P32795 279-712) (enzyme)
  stoichiometry N: 6
